This is an account of results in the supplement of paper PMC9170038.

This series deals with MS2 coat protein. The series can be described thus: apparent KD of MS2 coat protein; designed switch direction (-1 OFF switch, 1 ON switch): -1; higher = weaker reporter binding. The method in brief: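 Designed RNA switches with common flanks were transcribed on Illumina chips by stalled E. coli RNA polymerase and titrated with SNAP-549-labelled MS2 coat protein, from 0.7 or 1.5 nM doubling to 3 µM, in Tris-HCl pH 7.5 buffer with KCl, MgCl2, BSA, DTT, tRNA and Tween-20. Steps lasted 0.8–1.5 h (lowest) to 10–20 min (highest). Titrations ran without input, with 200 uM small-molecule ligand, or with an oligonucleotide input. Normalised cluster fluorescence was curve-fitted, and apparent KD is the per-design median over clusters.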

The mark [1] stands for this setting: Eterna round: R95, input ligand: FMN 200 uM.
Where [2] appears, read: Eterna round: R95, input ligand: microRNA oligo, concentration not stated.
The mark [3] stands for this setting: Eterna round: R95, input ligand: none.
Setting [4] is: input ligand: microRNA oligo, concentration not stated.

“UCAUGUUUAGAGGAUAUGAUUACUUUGGAGUAAUCAGAAGGCUAGACAUGAGGAUCACCCAUGUCAUAACAUGA [Exclusion 6 - B - 15:c] (puzzle: Exclusion 6)”: the “apparent KD of MS2 coat protein” value is, setting by setting: under setting [1], 75.5 nM; under setting [2], 71.5 nM; under setting [3], 61.3 nM.
As to “CCGCAAAUGCAGGAUAUCGUAUCGGAUACGAUACGAGAAGGGUAUACAUGAGGAUCACCCAUGUGUCCUAGCGG [Fiskers Ex 6 - 45] (puzzle: Exclusion 6)”, the “apparent KD of MS2 coat protein” value by setting is: under setting [1], 23.9 nM; under setting [2], 20.3 nM; under setting [3], 21.5 nM.
Take “UAGUACAGAGGAUAUACAUGAGGAUCACCCAUGUGUUUCAGCUAGGAGACUAGCGAAAGUAGAAGGCUGUACUA [salish99_ex3_r4_008] (Eterna round: R97, puzzle: Exclusion 3)”: the “apparent KD of MS2 coat protein” value reads like this: (input ligand: FMN 200 uM) 22.9 nM; (input ligand: none) 9.42 nM.
For the sequence “GCAUGUCUUAAGGAUAUGCUAAGGCGUGAGCCAGCAGAAGGUAAGACAUGAGGAUCACCCAUGUUUUCCUAAAA [jl-ex6-4.33 ViennaUCT mod] (Eterna round: R97, puzzle: Exclusion 6)”, the “apparent KD of MS2 coat protein” value amounted to 68.5 nM (input ligand: FMN 200 uM) and 18.9 nM (input ligand: none).
Turning to “CGUGCGUAUGUGAGGAUAUGCUGGUCCUUGGAUCGGCAGAAGGUACAUGAGGAUCACCCAUGUGGUGUCGUUCU [salish99_Bmod_ex4_106] (puzzle: Brourd's mod of Exclusion 4)”, the “apparent KD of MS2 coat protein” value under setting [2] was 171 nM.
On to “AAGAAACAUGAGGAUCACCCAUGUGAGGAUAUGAGUAAGAAAAGAAAAGAAAGAAGAUUCAGAAGGCACAAAGG [salish99-ex1_r3_057] (puzzle: Exclusion 1)”, for which the “apparent KD of MS2 coat protein” value was determined as 94.7 nM under setting [1], 58.1 nM under setting [2] and 73.2 nM under setting [3].
Regarding “GAUUCGGGAGGAUAUACAUGAGGAUCACCCAUGUAUAUAUAAUAUAAUAAAUUAAAAUGUAGAAGGUUUGGGUC [-13.5, -9.6 kcal, 38% A] (Eterna round: R97, puzzle: Exclusion 3)”, the “apparent KD of MS2 coat protein” value runs as follows: (input ligand: FMN 200 uM) 22.8 nM; (input ligand: none) 23.2 nM.
As to “GUGUACAGAGGAUAUACACGAGUAGUUACGAAAGUAACUAUACAUGAGGAUCACCCAUGUAGAAGGCUGUACAC [Dot plot directed v2] (puzzle: Exclusion 2)”, the “apparent KD of MS2 coat protein” value under setting [2] turned out to be 14.5 nM.
For the sequence “GAAAACGUAGGAUAUUAAUACUUAUACAUGAGGAUCACCCAUGUUUGGUGGGUAAAAGAAUGAGAAGGGCGAUGAA [EX5 #9] (Eterna round: R97, puzzle: Exclusion 5)”, the “apparent KD of MS2 coat protein” value by setting is: (input ligand: FMN 200 uM) 392 nM; (input ligand: none) 425 nM.
For “AGUACUAACACGAAAGUGUUCGUACAAUAAGCUUGUGAAACAUGAGGAUCACCCAUGUCCUCAUAAGCUCGUCUUAU [salish99_TOv2_r3_037] (puzzle: Sensor v3, turn-off variant 2)”, the “apparent KD of MS2 coat protein” value turned out to be 16.6 nM under setting [1], 810 nM under setting [2] and 15.6 nM under setting [3].
Regarding “AAGGGUGCUUUCGGAACGACAUGAGGAUCACCCAUGUAGACUGAGGAUAUCUACUUCUAAGGACGGGAGAAGGCAGUGUAAUGU [Ex NG3 #70] (Eterna round: R96, puzzle: Exclusion NG 3)”, the “apparent KD of MS2 coat protein” value reads like this: (input ligand: FMN 200 uM) 44.5 nM; under setting [4], 29 nM; (input ligand: none) 39.8 nM.
For “ACAUUGCUAGGAUAUCGCGGUAAGGACAUGAGGAUCACCCAUGUGGUGCCGUGGGAGGCCCGAGAAGGAGCGACCU [Maveonle] (puzzle: Exclusion 5)”, the “apparent KD of MS2 coat protein” value under setting [2] is 18.1 nM.
On to “CGUCAGUGAGGAUAUGGUAUCGUUUACAUGAGGAUCACCCAUGUUUCAUGGGACUAGAGACUAGAAGGUACUGACG [EX5 #43] (Eterna round: R97, puzzle: Exclusion 5)”, for which the “apparent KD of MS2 coat protein” value reads like this: (input ligand: FMN 200 uM) 408 nM; (input ligand: none) 579 nM.
Consider “GCACUGGCAGGAUAUACAUGAGGAUCACCCAUGUGAUCCCUUAGGUACAAAAGUACAAGUAGAAGGGCCUGUGC [Omei Ex3 Model Bachelor's Dilema v44] (Eterna round: R97, puzzle: Exclusion 3)”, for which the “apparent KD of MS2 coat protein” value was 52.2 nM (input ligand: FMN 200 uM) and 845 nM (input ligand: none).
For the sequence “AGAAAUGCCCAUGGCCACAAGCUUUCUGCUUGUCUUACUACAUGAGGAUCACCCAUGUAACAUGGGCUCCUGAUAAU [Enzainge] (puzzle: Sensor v3, turn-off variant 2)”, the “apparent KD of MS2 coat protein” value came to 13.2 nM under setting [1], 10.4 nM under setting [2] and 11.4 nM under setting [3].
Regarding “UCUUGUUGUCCUUGAUUUUACAUGAGGAUCACCCAUGUUAUUUUGAUUAUGAUGUGUAAGUUUGUUGCUCGUUUUAU [JR_STOV1_Sub068] (Eterna round: R97, puzzle: Sensor, turn-off variant 1)”, the “apparent KD of MS2 coat protein” value reads like this: (input ligand: FMN 200 uM) 49.8 nM; (input ligand: none) 54.3 nM.
As for “UGGGUUCUCCAUAGAAGUAACAUGAGGAUCACCCAUGUAGGGCAAGUUUUUUGCUCGUCAUAGGUUGAGGGAUUGGA [JR_SV3TOV1_Sub017] (puzzle: Sensor v3, turn-off variant 1)”, the “apparent KD of MS2 coat protein” value by setting is: under setting [1], 968 nM; under setting [2], 441 nM; under setting [3], 634 nM.
On to “CGCAUGUCAGGAUAUCGUGCAUACAACGAAAGUUCUAUGUGCGAGAAGGGACAUGAGGAUCACCCAUGUUAGCG [Omei Ex4 A9] (Eterna round: R97, puzzle: Exclusion 4)”, for which the “apparent KD of MS2 coat protein” value reads like this: (input ligand: FMN 200 uM) 741 nM; (input ligand: none) 604 nM.
“CUUUUGUGAGGAUAUCAGUAGUAAAAUAAUAAAUAUACUACUGAGAAGGCACAUGAGGAUCACCCAUGUUCCUC [Mat - Exclusion 4 - Mod of Salish - D74] (puzzle: Exclusion 4)”: the “apparent KD of MS2 coat protein” value under setting [2] is 35 nM.
As to “GGUCAUCAAGUCAGGAUAUCGUCAAAUCAAUCAGGCGAGAAGGGACAUGAGGAUCACCCAUGUCGACUCAUCAC [Ex4 #4] (Eterna round: R97, puzzle: Brourd's mod of Exclusion 4)”, the “apparent KD of MS2 coat protein” value was determined as 117 nM (input ligand: FMN 200 uM) and 31.2 nM (input ligand: none).
For “GCUGGACGAGGAUAUACAUGAGGAUCACCCAUGUGAUCAGCAGUCCUCGGACUGCAAUGUAGAAGGUGUCCAGC [E3/1-B2] (Eterna round: R97, puzzle: Exclusion 3)”, the “apparent KD of MS2 coat protein” value was found to be 302 nM (input ligand: FMN 200 uM) and 2320 nM (input ligand: none).
With “AAUAACUGAGGAUAUACUAUAAUAUGAAUAAAAUAAAUAAAACAUGAGGAUCACCCAUGUAGAAGGCAGAAUAA [JMF's Not so obvious solution 9] (puzzle: Exclusion 2)”, the “apparent KD of MS2 coat protein” value worked out at 23.2 nM under setting [1], 17.8 nM under setting [2] and 24.1 nM under setting [3].
Consider “AGUUCACAUGAGGAUCACCCAUGUGAGGAUAUGGUUUCGCUGGCCGUAGCCAGUGGAACCAGAAGGCGCAUGAU [Mat - Exclusion 1 - JL Mod - D14] (Eterna round: R97, puzzle: Exclusion 1)”, for which the “apparent KD of MS2 coat protein” value by setting is: (input ligand: FMN 200 uM) 38.6 nM; (input ligand: none) 34.5 nM.
With “GGGCAAUUAGGAUAUACAUGAGGAUCACCCAUGUGGAAGCCCGGACAGGUAAUCCACUGUAGAAGGGAUUGCGG [Userqube] (puzzle: Exclusion 3)”, the “apparent KD of MS2 coat protein” value under setting [2] was found to be 13.5 nM.
With “ACAAGCUUUAGGCGUGUGAACAUGAGGAUCACCCAUGUAUUUUUGGUUAGGAGUUCUGUAAGGGAUGCUCGUCUUAU [JR_SWV3TOV1_Sub091] (puzzle: Sensor v3, turn-off variant 1)”, the “apparent KD of MS2 coat protein” value stood at 42.2 nM under setting [1], 55.1 nM under setting [2] and 48.9 nM under setting [3].
Take “GGCGCCUCAGGAUAUCAGUCUGGAUCAGAAUAGAUCCUGACUGAGAAGGGACAUGAGGAUCACCCAUGUUCGCC [Eli 4x 4.29] (Eterna round: R97, puzzle: Exclusion 4)”: the “apparent KD of MS2 coat protein” value (input ligand: FMN 200 uM) amounted to 20.8 nM and the “apparent KD of MS2 coat protein” value (input ligand: none) worked out at 18.9 nM.
For the sequence “AAUGUUUGAUACCUUUAAUACAUGAGGAUCACCCAUGUUAUCGAGGAUAUGUAGAUGAAAUGAGAACAGAAGGCGAAGUAAGAG [JR_ExcNG3_Sub098] (Eterna round: R96, puzzle: Exclusion NG 3)”, the “apparent KD of MS2 coat protein” value (input ligand: FMN 200 uM) was determined as 19.5 nM, the “apparent KD of MS2 coat protein” value under setting [4] is 9.73 nM and the “apparent KD of MS2 coat protein” value (input ligand: none) is 24.4 nM.
As to “GUUGCUACUGAGGAUAUUAUACUACCCGACUGAUAAGAAGGCAGUACAUGAGGAUCACCCAUGUGGGUAGCCAC [Polaris13] (Eterna round: R97, puzzle: Exclusion 6)”, the “apparent KD of MS2 coat protein” value by setting is: (input ligand: FMN 200 uM) 25.5 nM; (input ligand: none) 21.7 nM.
With “UGAUCUAGGCGAGGAUAUACAUGAGGAUCACCCAUGUAAUGGUGACAUGCGUACAUGUCACCUAUGUAGAAGGCGCCUAGAUCU [JL ENG2 3.55] (Eterna round: R96, puzzle: Exclusion NG 2)”, the “apparent KD of MS2 coat protein” value reads like this: (input ligand: FMN 200 uM) 19.6 nM; under setting [4], 9 nM; (input ligand: none) 13 nM.
On to “GCACGGUAAGUGAGGAUAUACCUCUGGAUACAGAGGUAGAAGGCACAUGAGGAUCACCCAUGUCCAAGCCGUGC [Fiskers BMX 4 - 84] (puzzle: Brourd's mod of Exclusion 4)”, for which the “apparent KD of MS2 coat protein” value under setting [2] was 22.8 nM.
Take “UAUAUAUAGUAAGGAUAUGUAUUUAUUUUAUAGACAGAAGGUACUGACAUGAGGAUCACCCAUGUUUUAGUGUGGGCAUGUAGA [JMF's solution 27] (Eterna round: R96, puzzle: Exclusion NG 1)”: the “apparent KD of MS2 coat protein” value (input ligand: FMN 200 uM) was 122 nM, the “apparent KD of MS2 coat protein” value under setting [4] came to 78.5 nM and the “apparent KD of MS2 coat protein” value (input ligand: none) came to 94.4 nM.
